Assay results taken from paper PMC8228455, “Redox Regulation of the Quorum-sensing Transcription Factor AgrA by Coenzyme A”.

Target: T1, AgrA (6xHis-SaAgrA) (Staphylococcus aureus, UniProt Q5HEG2 1-238)
T1 sequence: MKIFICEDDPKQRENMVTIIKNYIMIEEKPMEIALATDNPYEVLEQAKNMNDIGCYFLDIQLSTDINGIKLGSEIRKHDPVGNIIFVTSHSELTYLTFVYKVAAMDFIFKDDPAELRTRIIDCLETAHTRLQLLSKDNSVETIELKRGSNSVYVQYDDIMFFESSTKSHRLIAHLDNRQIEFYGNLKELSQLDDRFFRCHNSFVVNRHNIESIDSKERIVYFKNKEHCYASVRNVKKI
Assay: SPR; non-CoAlated; ka 5.75e3 1/Ms, kd 1.01e-2 1/s; SPR (Biacore 2000, SA chip, ~500 RU DNA): 20 mM HEPES pH 7.6, 250 mM KCl, 10% glycerol; 30 uL/min; temperature not stated; 1:1 Langmuir fit
Conditions: protein: recombinant; tags: 6xHis; chain copies: 2; label: 5' biotin (immobilized on SA chip); blunt

B1: P2 promoter (dsDNA)
DNA 1: TAACAGTTAAGTATTTATTTCCTACAGTTAGGCA
DNA 2: TGCCTAACTGTAGGAAATAAATACTTAACTGTTA
With B1 as the binder, how does the Kd read?
Its Kd is 1750 ± 580 nM.
